Patent EP4610277A1 (Daiichi Sankyo Company, Limited, dated 2025)

What was measured:
[1] = target: T1, recombinant human KIR3DS1/CD158e2 Fc chimera protein (4136-KR-050, R&D Systems) (human, UniProt Q14943 22-340, limits assumed); assay: flow cytometry, KIR-Fc on scFv-K562 cells
T1 construct: Bought Fc chimera; also called soluble KIR3DS1; recombinant KIR3DS1

[2] = target: T2, recombinant KIR3DL1 (extracellular domain-Fc-Avi, in-house) (human); assay: flow cytometry, KIR-Fc 0.1 µM on scFv-K562 cells
T2 construct: IL-2 signal peptide left out; also called soluble KIR3DL1
T2 sequence (chain, as listed by the source): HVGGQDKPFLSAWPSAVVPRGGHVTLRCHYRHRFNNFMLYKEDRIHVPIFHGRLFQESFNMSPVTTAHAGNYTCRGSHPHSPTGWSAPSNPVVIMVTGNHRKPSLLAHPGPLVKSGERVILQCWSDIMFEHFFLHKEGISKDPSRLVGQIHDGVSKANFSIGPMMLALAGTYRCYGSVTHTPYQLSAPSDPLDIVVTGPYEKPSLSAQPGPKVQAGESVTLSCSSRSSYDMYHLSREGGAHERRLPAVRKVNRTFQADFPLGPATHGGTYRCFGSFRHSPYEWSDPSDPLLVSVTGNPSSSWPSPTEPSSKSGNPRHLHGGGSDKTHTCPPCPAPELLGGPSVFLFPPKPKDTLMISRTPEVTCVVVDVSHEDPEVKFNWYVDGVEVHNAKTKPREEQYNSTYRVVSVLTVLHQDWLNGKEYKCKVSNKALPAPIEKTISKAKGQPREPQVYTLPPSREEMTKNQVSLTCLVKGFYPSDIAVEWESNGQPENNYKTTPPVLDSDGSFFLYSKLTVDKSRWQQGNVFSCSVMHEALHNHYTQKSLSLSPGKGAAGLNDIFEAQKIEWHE

[3] = target: T3, KIR2DL2 (22-225)-His, deglycosylated (human, UniProt P43627 22-225); assay: size exclusion chromatography of the mixed proteins; complex then crystallised
T3 construct: IL-2 signal peptide left out; treated with Protein Deglycosylation Mix II; also called recombinant KIR2DL2
T3 sequence (P43627 other isoform, or with tags, fused parts or gaps): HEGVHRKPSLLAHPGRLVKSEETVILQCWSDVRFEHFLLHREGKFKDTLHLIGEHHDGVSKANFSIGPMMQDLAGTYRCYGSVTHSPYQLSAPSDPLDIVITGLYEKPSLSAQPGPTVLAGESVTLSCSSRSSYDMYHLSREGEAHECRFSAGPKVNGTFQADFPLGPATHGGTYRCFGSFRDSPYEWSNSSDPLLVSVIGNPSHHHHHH

T1 sequence (Q14943 22-340 limits assumed, change not shown): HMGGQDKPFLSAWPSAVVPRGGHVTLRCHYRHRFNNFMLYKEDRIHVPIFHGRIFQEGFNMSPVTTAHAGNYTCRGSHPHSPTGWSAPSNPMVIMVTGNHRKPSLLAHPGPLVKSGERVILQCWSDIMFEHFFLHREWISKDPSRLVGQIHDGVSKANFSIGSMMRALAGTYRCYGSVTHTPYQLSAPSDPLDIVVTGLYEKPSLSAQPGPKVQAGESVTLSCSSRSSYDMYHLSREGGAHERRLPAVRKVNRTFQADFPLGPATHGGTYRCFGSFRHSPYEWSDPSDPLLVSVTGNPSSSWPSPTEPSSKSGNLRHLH

binding result [1] | binding result [2] | binding result [3] | Binder
no binding (tested: 0.1 µM) | binds |  | membrane-type a3DL1-DS6 scFv (scFv, On K562 cells) scFv: DYKDDDDKGSGQMQLVQSGAEVKKPGESLKISCKGSGYSFTSYWIGWVRQMPGKGPEWMGIIYPGDSYTNYSPSFQGHVTISADKSISTAYLQWSSLKASDTAMYYCARLAPTVEDAFDIWGQGTLVTVSSGGGGSGGGGSGGGGSQSVLTQPPSVSEAPGQRVTISCTGSSSNIGAGYDVHWYQQLPGTAPKLLIYGNSNRPSGVPDRFSGSKSGTSASLAITGLQAEDEADYYCQSYDSSLSEEVFGTGTKVTVLALSNSIMYFSHFVPVFLPAKPTTTPAPRPPTPAPTIASQPLSLRPEACRPAAGGAVHTRGLDFACDIYIWAPLAGTCGVLLLSLVITLYCNH
 |  | binds | Fab fragment of a2DL2/3-DS10 (Fab, V domains shown, Signal peptides left out; also called a2DL2/3-DS10 Fab; 61_3092_02_F10_Fab) VH: QVQLVQSGAEVKKPGSSVKVSCKASGGTFSSFAISWVRQAPGQGLEWMGGIIPIFGTANYAQKFQGRVTITADESTSTAYMELSSLRSEDTAVYYCARVSGTTGGYYYGMDVWGQGTLVTVSS VL: AIRMTQSPSSVSASVGDRVTITCRASQGIGNWLAWYQQKPGRAPKLLISTASSLQSGVPSRFSGGGSGRGFTLTISSLQLEDFATYYCQQSYITPWTFGQGTKVEIKV
